Assay results taken from the supplement of paper PMC9732359.
± gives the uncertainty stated by the source.

Assay: protein stability index of a GFP-peptide fusion (yeast GPS) (PSI 1-4); higher = more stable; sorted into four equal gates, so the index is relative within each strain
How it was run: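 Tiled yeast protein peptides of 17 residues were each joined downstream of GFP, on plasmids that also express Cherry. The pooled library was maintained in yeast, and mid-log cultures in leucine-free medium were sorted into four equal gates on the GFP/Cherry ratio. Plasmids from every gate were amplified by PCR and sequenced on Illumina, with barcodes linking reads to strains. The protein stability index of a peptide is its gate-number-weighted read frequency summed over the gates.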

Row | Sequence | protein stability index (doa10∆) | protein stability index (pdr5∆) | protein stability index (san1∆) | protein stability index (ubr1∆)
1 | SQSACREMALCRELHNK [SSN3] | 2.42 ± 0.089 | 2.38 ± 0.073 | 2.55 ± 0.11 | 2.8 ± 0.067
2 | PVYTAQWSATWIAMRRE [PRP8] | 1.68 ± 0.079 | 1.96 ± 0.063 | 1.97 ± 0.089 | 1.9 ± 0.067
3 | KSGKRKPNIILDEDDTN [RPC31] | 3.29 ± 0.1 | 3.12 ± 0.092 | 3.35 ± 0.067 | 3.21 ± 0.046
4 | EVFQLRIFVKEILEKCA [GAL11] | 2.29 ± 0.12 | 2.11 ± 0.12 | 2.19 ± 0.077 | 2.12 ± 0.19
5 | SGIRLIEPELFNGYNPE [FAS2] | 2.81 ± 0.067 | 2.89 ± 0.074 | 2.82 ± 0.073 | 2.83 ± 0.045
6 | EYVYFFNNTSVIQDEVL [RPC40] | 2.41 ± 0.15 | – | – | 2.55 ± 0.073
7 | KPVKVALIFIFFAYFIG [YJL039C/NUP192] | 1.66 ± 0.042 | 1.4 ± 0.037 | 1.38 ± 0.064 | 1.4 ± 0.027
8 | LEYEISKLKKETASFIP [YIL149C/MLP2] | 2.66 ± 0.08 | 2.8 ± 0.085 | 2.89 ± 0.06 | 2.68 ± 0.059
9 | VRSTIKFQLKKVLCLAV [RPL1A] | 1.45 ± 0.051 | 1.35 ± 0.053 | 1.29 ± 0.089 | 1.18 ± 0.037
10 | GEDSTKPLGPCDVFWVQ [POP1] | 3.12 ± 0.094 | 2.97 ± 0.082 | 3.17 ± 0.072 | 2.8 ± 0.057
11 | ETKADGILLETISVPQI [RRP6] | 2.58 ± 0.076 | 2.52 ± 0.056 | 2.51 ± 0.061 | 2.26 ± 0.053
12 | TPEMNVTNNVEEGEFII [TAF14] | – | 2.43 ± 0.26 | – | 3.62 ± 0.22
13 | VDIYSLPLISTDVLEIS [YMR129W/POM152] | 2.06 ± 0.052 | 2.58 ± 0.049 | 2.43 ± 0.045 | 2.44 ± 0.044
14 | EQTEGEPKKKRGFLGLF [SRP68] | 3.1 ± 0.096 | 3.26 ± 0.11 | 2.9 ± 0.064 | 2.76 ± 0.066
15 | ILEEGSSGMGAFGGSGG [RPN10] | 3.36 ± 0.13 | 3 ± 0.16 | 3.04 ± 0.15 | 3.28 ± 0.081
16 | AFFTYDAGVTFNKEQLN [ECM29] | 2.07 ± 0.052 | 3.08 ± 0.1 | 2.63 ± 0.083 | 2.58 ± 0.061
17 | SRPGQSGRCDGYILEGE [RPS8A] | 3.38 ± 0.19 | 3.49 ± 0.17 | 3.3 ± 0.17 | 3.38 ± 0.049
18 | NKKLIKKLSKKYNAFIA [RPL1A] | 1.45 ± 0.048 | 1.94 ± 0.052 | 1.45 ± 0.12 | 1.88 ± 0.049
19 | HTKFEVAIGLNGKIWVK [RRP40] | 2.18 ± 0.084 | 2.48 ± 0.065 | 2.39 ± 0.072 | 2.56 ± 0.055
20 | VSTEGNVPQTLAPVPYE [RPL21A] | 3.19 ± 0.072 | 3.02 ± 0.085 | 3.11 ± 0.05 | 3.05 ± 0.068
21 | NIAFDAHMSIGCLHKGK [YML031W/NDC1] | 3.07 ± 0.15 | 2.7 ± 0.089 | 1.55 ± 0.15 | 2.27 ± 0.086
22 | VRYGSSLRRQVKKLEIQ [RPL43A] | – | – | 2.55 ± 0.2 | –
23 | LRLKPGRKYTTLGKLST [RPL16B] | 2.69 ± 0.057 | 2.64 ± 0.062 | 3.03 ± 0.036 | 2.97 ± 0.037
24 | LLDDKKLMDEDSVATVI [YJR042W/NUP85] | 3.06 ± 0.15 | 2.91 ± 0.21 | 2.87 ± 0.14 | –
25 | VASSTNFTSPTAVVNNA [SWI1] | 2.64 ± 0.094 | 2.56 ± 0.12 | 2.48 ± 0.14 | 2.91 ± 0.069
26 | LNCGNGMGIGFIDHHAA [POP1] | 3.33 ± 0.086 | 3.13 ± 0.07 | 3.33 ± 0.07 | 3.42 ± 0.046
27 | KSNVIDSMLFVFGFRAN [SMC4] | 2.26 ± 0.049 | 2.39 ± 0.054 | 2.16 ± 0.078 | 2.68 ± 0.059
28 | PVVRAPTVKYNRKVRAG [RPL13A] | 1.22 ± 0.1 | 2.15 ± 0.14 | 1.98 ± 0.18 | 1.49 ± 0.11

Row | Sequence | protein stability index (doa10∆) | protein stability index (pdr5∆) | protein stability index (san1∆) | protein stability index (ubr1∆)
29 | TLNSRALSGLYYKNFHN [SNM1] | 2.17 ± 0.052 | 2.38 ± 0.06 | 1.88 ± 0.063 | 2 ± 0.042
30 | LKVYKVGDIVDIKANGS [RPL21A] | 2.35 ± 0.054 | 2.14 ± 0.044 | 2.07 ± 0.052 | 2.11 ± 0.029
31 | IHGVLKNVDREVVSEAI [FAS2] | 3.19 ± 0.1 | 3.4 ± 0.3 | 3.3 ± 0.14 | –
32 | VSIDIEEPQLDLLDDVL [MTW1] | 2.62 ± 0.094 | 3.09 ± 0.067 | 3.24 ± 0.045 | 3.19 ± 0.048
33 | HDSILHSRILPKKALKV [RRP43] | 2.08 ± 0.038 | 2.04 ± 0.041 | 1.68 ± 0.079 | 1.75 ± 0.034
34 | ELADLPKLKRIGLVKCT [GRR1] | 2.82 ± 0.085 | 2.71 ± 0.051 | 2.28 ± 0.088 | 2.88 ± 0.087
35 | SIWQVKDQLPDLESMGL [MED7] | 2.81 ± 0.11 | 3.04 ± 0.079 | 2.93 ± 0.12 | 3.35 ± 0.097
36 | DSAKEWPQSKNCEYEDP [RPB3] | 3.6 ± 0.19 | 3.13 ± 0.13 | 3.27 ± 0.14 | 3.27 ± 0.14
37 | LNEEAVIFLSSLLTLVG [YJL039C/NUP192] | 2.52 ± 0.076 | 2.72 ± 0.086 | 2.3 ± 0.11 | 2.9 ± 0.088
38 | DSIPRDVAYLLKSESAT [YGL172W/NUP49] | 2.74 ± 0.092 | 3.11 ± 0.079 | 2.91 ± 0.05 | 3.19 ± 0.074
39 | HPGYDCWLSNIDIQTQD [RRI1] | 2.72 ± 0.099 | 3.14 ± 0.091 | 3.08 ± 0.062 | 3.16 ± 0.075
40 | FTIQSFVSSLSNTSTLK [BRR2] | 1.83 ± 0.05 | 1.97 ± 0.041 | 2.01 ± 0.055 | 2.24 ± 0.034
41 | EQLSKQRDLYKRKEELV [SMC2] | 2.34 ± 0.15 | 3.1 ± 0.19 | 2.67 ± 0.086 | 2.73 ± 0.084
42 | TARRNVSGDAAALFRLH [SWI3] | 2.43 ± 0.093 | 2.98 ± 0.099 | 2.78 ± 0.086 | 1.95 ± 0.063
43 | SLNEDVEEIKLQKEKEL [SMC2] | – | 1.83 ± 0.25 | – | –
44 | TANANKPAFSFGATTND [YJL041W/NSP1] | 3.01 ± 0.07 | 2.74 ± 0.051 | 2.91 ± 0.047 | 2.88 ± 0.039
45 | SNFADSADYEILYEIRA [YDL116W/NUP84] | 1.83 ± 0.081 | 1.61 ± 0.097 | 2.42 ± 0.19 | 1.71 ± 0.099
46 | EKIKKINYHQYISKAQN [SSN2] | 1.82 ± 0.055 | 2.18 ± 0.041 | 2.07 ± 0.078 | 2.15 ± 0.062
47 | DGFDPRGNIKVMFATNR [RPT1] | 3.25 ± 0.17 | 3.48 ± 0.16 | 3.26 ± 0.091 | 3.24 ± 0.14
48 | ATLGIDPPKGILLYGPP [RPT1] | 2.97 ± 0.078 | 2.96 ± 0.077 | 2.95 ± 0.13 | 2.98 ± 0.047
49 | RETNDDIWRVAGKFELL [SNF2] | 2.54 ± 0.067 | 2.26 ± 0.065 | 2.43 ± 0.076 | 2.8 ± 0.066
50 | VGSVTYQVDEDVKSSLS [YJL039C/NUP192] | 3.26 ± 0.15 | 3.2 ± 0.13 | 3.29 ± 0.062 | 3.48 ± 0.1
51 | QDDADPMVSVMKMDKSP [RPT2] | 1.16 ± 0.065 | 1.27 ± 0.079 | 1.29 ± 0.26 | 1.52 ± 0.073
52 | SAKGPEIIPLQDYYIIG [MED6] | 3.18 ± 0.098 | 3.14 ± 0.054 | 3.14 ± 0.044 | 3.31 ± 0.063
53 | KKNDMNTSAKNKNGENK [SIR4] | 2.59 ± 0.06 | 2.69 ± 0.061 | 3.03 ± 0.054 | 3.12 ± 0.066
54 | NISISTSELGNDDFSEV [BRR2] | 2.94 ± 0.12 | 3.19 ± 0.096 | 2.46 ± 0.078 | 3.12 ± 0.077
55 | GLSVTQKVFVRSRNGGA [DIS3] | 1.46 ± 0.071 | 1.32 ± 0.065 | 1.4 ± 0.15 | 1.62 ± 0.063
